The text below walks through data of paper PMC8197658.

One series concerns the target SALL4A (full-length) (Homo sapiens, UniProt Q9UJQ4 1-1053). The experiment in a line: EMSA. (Mobility shift assays separate free from complexed probe on a gel.)
Another series addresses T1, SALL4 ZFC4 (UniProt Q9UJQ4 864-929).
T1 sequence: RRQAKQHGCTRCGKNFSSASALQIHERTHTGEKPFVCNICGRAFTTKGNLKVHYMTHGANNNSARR
The experiment in a line: ITC. For orientation: In ITC the heat of successive injections is recorded.

SALL4A (full-length), sequence (Q9UJQ4 whole entry): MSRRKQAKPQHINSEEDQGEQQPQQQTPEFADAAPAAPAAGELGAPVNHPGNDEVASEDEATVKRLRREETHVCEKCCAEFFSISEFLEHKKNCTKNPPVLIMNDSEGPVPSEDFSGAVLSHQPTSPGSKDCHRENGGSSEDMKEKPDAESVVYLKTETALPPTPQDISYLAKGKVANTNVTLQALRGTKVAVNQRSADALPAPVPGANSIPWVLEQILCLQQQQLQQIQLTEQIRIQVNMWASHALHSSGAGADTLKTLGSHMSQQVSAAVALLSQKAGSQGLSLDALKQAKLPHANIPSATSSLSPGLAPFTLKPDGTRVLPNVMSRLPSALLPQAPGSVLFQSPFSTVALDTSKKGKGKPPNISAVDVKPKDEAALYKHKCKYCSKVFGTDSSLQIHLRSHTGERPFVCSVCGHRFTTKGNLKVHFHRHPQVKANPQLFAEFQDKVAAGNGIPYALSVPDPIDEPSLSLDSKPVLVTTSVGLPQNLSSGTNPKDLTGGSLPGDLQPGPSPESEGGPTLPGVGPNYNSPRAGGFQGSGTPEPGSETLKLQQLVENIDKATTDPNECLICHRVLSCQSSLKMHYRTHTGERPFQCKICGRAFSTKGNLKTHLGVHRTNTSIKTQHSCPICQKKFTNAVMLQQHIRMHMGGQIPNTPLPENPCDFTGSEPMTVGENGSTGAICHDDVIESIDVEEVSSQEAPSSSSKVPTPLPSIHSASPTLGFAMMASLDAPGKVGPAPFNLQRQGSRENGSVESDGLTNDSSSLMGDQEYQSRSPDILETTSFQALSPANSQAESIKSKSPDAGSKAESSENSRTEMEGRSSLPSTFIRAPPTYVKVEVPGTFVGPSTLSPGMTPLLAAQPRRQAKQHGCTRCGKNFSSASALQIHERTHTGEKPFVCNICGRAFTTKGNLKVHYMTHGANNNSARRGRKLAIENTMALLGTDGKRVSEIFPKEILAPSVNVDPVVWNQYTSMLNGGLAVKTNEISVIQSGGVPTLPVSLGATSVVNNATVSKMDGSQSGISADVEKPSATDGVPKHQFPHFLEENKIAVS

B1: KDM3A EMSA WT oligo (dsDNA)
DNA 1: TCTTCATTTATCCTTCAAAA
DNA 2: TTTTGAAGGATAAATGAAGA
For B1, in the series with SALL4A (full-length), the binding result is given as “binds”.

B2: ITC Mutant oligo 2 (dsDNA)
DNA 1: GATAAACGCTTG
DNA 2: CAAGCGTTTATC
As for B2, the binding result with SALL4 ZFC4 is recorded as “no binding”.

B3: ITC Mutant oligo 1 (dsDNA)
DNA 1: GAGTCGCTAATG
DNA 2: CATTAGCGACTC
Take B3: in the series with SALL4 ZFC4, the binding result is listed as “no binding”.

B4: KDM3A EMSA Mutant oligo (dsDNA)
DNA 1: TCTTCTTTTAACCTTCAAAA
DNA 2: TTTTGAAGGTTAAAAGAAGA
For the molecule B4, in the series with SALL4A (full-length), the binding result is on record as “no binding”.
